PMC10707054

Molecular target: FLAG-PTTG1Δ159
Test: co-IP; TCAM2 cells overexpressing FLAG-PTTG1 or FLAG-PTTG1Δ159; IP with M2 αFLAG antibody overnight at 4 °C, Dynabeads; IP lysis buffer 50 mM Tris-Cl pH 7.5, 150 mM NaCl, 1% Nonidet P-40, 1 mM EDTA; Western blot for endogenous SPTBN1, densitometry

“Spectrin-βII-chain (SPTBN1) (from UniProt Q01082 1-2364) (natural protein)” was tested, and the binding relative to wild-type PTTG1 (densitometry of the co-IP) was 30%.
